Data from the supplement of paper PMC9112550, “Optimization of the antimicrobial peptide Bac7 by deep mutational scanning” (BMC Biology, 2022).

Tested on: Escherichia coli TOP10
Assay: shrunken log2 fold change of peptide-encoding DNA abundance (4.5 h post-induction vs induction); higher = less antimicrobial activity (less host growth inhibition)
Conditions: time post-induction: 4.5 h; library: site-saturation at positions 5, 18, 19, 20
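Also: peptides expressed intracellularly from a pBAD plasmid library in pooled LB shake-flask culture, induced with 0.3% L-arabinose, DNA abundance read by NGS, three biological replicates, DESeq2 with apeglm shrinkage.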

## RRIRMRPPRLPRPRPRPFNSPRP
  shrunken log2 fold change: -0.326

## RRIRMRPPRLPRPRPRPFNYPRP
  shrunken log2 fold change: -0.559

## RRIRMRPPRLPRPRPRPFPMPRP
  shrunken log2 fold change: 0.237

## RRIRMRPPRLPRPRPRPFQHPRP
  shrunken log2 fold change: 0.0658

## RRIRMRPPRLPRPRPRPFSCPRP
  shrunken log2 fold change: -0.115

## RRIRMRPPRLPRPRPRPFSEPRP
  shrunken log2 fold change: 0.273

## RRIRMRPPRLPRPRPRPFSHPRP
  shrunken log2 fold change: 0.0882

## RRIRMRPPRLPRPRPRPFSYPRP
  shrunken log2 fold change: -0.029

## RRIRMRPPRLPRPRPRPFTCPRP
  shrunken log2 fold change: -0.173

## RRIRMRPPRLPRPRPRPFTDPRP
  shrunken log2 fold change: 0.174

## RRIRMRPPRLPRPRPRPFTVPRP
  shrunken log2 fold change: -0.00884

## RRIRMRPPRLPRPRPRPFTYPRP
  shrunken log2 fold change: -0.0802

## RRIRMRPPRLPRPRPRPFYQPRP
  shrunken log2 fold change: -0.297

## RRIRMRPPRLPRPRPRPFYTPRP
  shrunken log2 fold change: -0.364

## RRIRMRPPRLPRPRPRPGAPPRP
  shrunken log2 fold change: 1.31

## RRIRMRPPRLPRPRPRPGFGPRP
  shrunken log2 fold change: 0.904

## RRIRMRPPRLPRPRPRPGHKPRP
  shrunken log2 fold change: -0.231

## RRIRMRPPRLPRPRPRPGIEPRP
  shrunken log2 fold change: 2.2

## RRIRMRPPRLPRPRPRPGIRPRP
  shrunken log2 fold change: 0.253

## RRIRMRPPRLPRPRPRPGKEPRP
  shrunken log2 fold change: 0.137

## RRIRMRPPRLPRPRPRPGLSPRP
  shrunken log2 fold change: 0.795

## RRIRMRPPRLPRPRPRPGMCPRP
  shrunken log2 fold change: 0.19

## RRIRMRPPRLPRPRPRPGNHPRP
  shrunken log2 fold change: -0.0526

## RRIRMRPPRLPRPRPRPGPIPRP
  shrunken log2 fold change: 0.115

## RRIRMRPPRLPRPRPRPGQNPRP
  shrunken log2 fold change: 0.0316

## RRIRMRPPRLPRPRPRPGRFPRP
  shrunken log2 fold change: 0.0931

## RRIRMRPPRLPRPRPRPGRRPRP
  shrunken log2 fold change: 0.724

## RRIRMRPPRLPRPRPRPGSYPRP
  shrunken log2 fold change: 0.124

## RRIRMRPPRLPRPRPRPGTPPRP
  shrunken log2 fold change: 1.02

## RRIRMRPPRLPRPRPRPGVCPRP
  shrunken log2 fold change: 0.535

## RRIRMRPPRLPRPRPRPGVHPRP
  shrunken log2 fold change: 0.0493

## RRIRMRPPRLPRPRPRPGWSPRP
  shrunken log2 fold change: 0.548

## RRIRMRPPRLPRPRPRPGYMPRP
  shrunken log2 fold change: 0.0502

## RRIRMRPPRLPRPRPRPHCFPRP
  shrunken log2 fold change: -0.0715

## RRIRMRPPRLPRPRPRPHCIPRP
  shrunken log2 fold change: -0.0281

## RRIRMRPPRLPRPRPRPHCVPRP
  shrunken log2 fold change: 0.0437

## RRIRMRPPRLPRPRPRPHDFPRP
  shrunken log2 fold change: 0.143

## RRIRMRPPRLPRPRPRPHDKPRP
  shrunken log2 fold change: 0.0701

## RRIRMRPPRLPRPRPRPHGAPRP
  shrunken log2 fold change: 0.0098

## RRIRMRPPRLPRPRPRPHKDPRP
  shrunken log2 fold change: -0.0811

## RRIRMRPPRLPRPRPRPHLTPRP
  shrunken log2 fold change: -0.0375

## RRIRMRPPRLPRPRPRPHNSPRP
  shrunken log2 fold change: -0.171

## RRIRMRPPRLPRPRPRPHNVPRP
  shrunken log2 fold change: 0.0515

## RRIRMRPPRLPRPRPRPHQEPRP
  shrunken log2 fold change: 0.018

## RRIRMRPPRLPRPRPRPHQPPRP
  shrunken log2 fold change: 0.0274

## RRIRMRPPRLPRPRPRPHRIPRP
  shrunken log2 fold change: 0.0956

## RRIRMRPPRLPRPRPRPHSKPRP
  shrunken log2 fold change: -0.0418

## RRIRMRPPRLPRPRPRPHTCPRP
  shrunken log2 fold change: -0.0858

## RRIRMRPPRLPRPRPRPHTVPRP
  shrunken log2 fold change: -0.0708

## RRIRMRPPRLPRPRPRPHVLPRP
  shrunken log2 fold change: -0.00145

## RRIRMRPPRLPRPRPRPHWDPRP
  shrunken log2 fold change: -0.145

## RRIRMRPPRLPRPRPRPHWKPRP
  shrunken log2 fold change: 0.0142

## RRIRMRPPRLPRPRPRPHYPPRP
  shrunken log2 fold change: -0.303

## RRIRMRPPRLPRPRPRPIATPRP
  shrunken log2 fold change: -0.0165

## RRIRMRPPRLPRPRPRPIAWPRP
  shrunken log2 fold change: 0.201

## RRIRMRPPRLPRPRPRPICCPRP
  shrunken log2 fold change: -0.00414

## RRIRMRPPRLPRPRPRPICKPRP
  shrunken log2 fold change: -0.0206

## RRIRMRPPRLPRPRPRPICRPRP
  shrunken log2 fold change: 0.297

## RRIRMRPPRLPRPRPRPIDWPRP
  shrunken log2 fold change: 0.483

## RRIRMRPPRLPRPRPRPIGYPRP
  shrunken log2 fold change: -0.0789

## RRIRMRPPRLPRPRPRPIHYPRP
  shrunken log2 fold change: -0.689

## RRIRMRPPRLPRPRPRPIIGPRP
  shrunken log2 fold change: -0.00776

## RRIRMRPPRLPRPRPRPIIKPRP
  shrunken log2 fold change: -0.265

## RRIRMRPPRLPRPRPRPIPCPRP
  shrunken log2 fold change: 0.02

## RRIRMRPPRLPRPRPRPIPGPRP
  shrunken log2 fold change: 0.105

## RRIRMRPPRLPRPRPRPIQVPRP
  shrunken log2 fold change: -0.00663

## RRIRMRPPRLPRPRPRPIRGPRP
  shrunken log2 fold change: -0.00871

## RRIRMRPPRLPRPRPRPIRRPRP
  shrunken log2 fold change: -0.168

## RRIRMRPPRLPRPRPRPIRTPRP
  shrunken log2 fold change: -0.0696

## RRIRMRPPRLPRPRPRPISKPRP
  shrunken log2 fold change: 0.316

## RRIRMRPPRLPRPRPRPITDPRP
  shrunken log2 fold change: -0.667

## RRIRMRPPRLPRPRPRPITRPRP
  shrunken log2 fold change: 0.248

## RRIRMRPPRLPRPRPRPIVTPRP
  shrunken log2 fold change: -0.00781

## RRIRMRPPRLPRPRPRPKAIPRP
  shrunken log2 fold change: 0.417

## RRIRMRPPRLPRPRPRPKANPRP
  shrunken log2 fold change: 1.96

## RRIRMRPPRLPRPRPRPKCAPRP
  shrunken log2 fold change: 2.89

## RRIRMRPPRLPRPRPRPKCDPRP
  shrunken log2 fold change: 0.318

## RRIRMRPPRLPRPRPRPKDEPRP
  shrunken log2 fold change: 1.75

## RRIRMRPPRLPRPRPRPKDGPRP
  shrunken log2 fold change: -0.0156

## RRIRMRPPRLPRPRPRPKDNPRP
  shrunken log2 fold change: 1.43

## RRIRMRPPRLPRPRPRPKDWPRP
  shrunken log2 fold change: 1.43

## RRIRMRPPRLPRPRPRPKENPRP
  shrunken log2 fold change: 1.9

## RRIRMRPPRLPRPRPRPKEYPRP
  shrunken log2 fold change: 0.189

## RRIRMRPPRLPRPRPRPKHGPRP
  shrunken log2 fold change: 0.742

## RRIRMRPPRLPRPRPRPKHKPRP
  shrunken log2 fold change: 0.562

## RRIRMRPPRLPRPRPRPKKCPRP
  shrunken log2 fold change: 0.959

## RRIRMRPPRLPRPRPRPKKLPRP
  shrunken log2 fold change: 0.354

## RRIRMRPPRLPRPRPRPKLCPRP
  shrunken log2 fold change: 0.438

## RRIRMRPPRLPRPRPRPKLEPRP
  shrunken log2 fold change: 1.14

## RRIRMRPPRLPRPRPRPKLHPRP
  shrunken log2 fold change: 0.325

## RRIRMRPPRLPRPRPRPKMIPRP
  shrunken log2 fold change: -0.0167

## RRIRMRPPRLPRPRPRPKMQPRP
  shrunken log2 fold change: 0.995

## RRIRMRPPRLPRPRPRPKPMPRP
  shrunken log2 fold change: 1.14

## RRIRMRPPRLPRPRPRPKQCPRP
  shrunken log2 fold change: 0.208

## RRIRMRPPRLPRPRPRPKQQPRP
  shrunken log2 fold change: 0.48

## RRIRMRPPRLPRPRPRPKQTPRP
  shrunken log2 fold change: 3.33

## RRIRMRPPRLPRPRPRPKQWPRP
  shrunken log2 fold change: 0.895

## RRIRMRPPRLPRPRPRPKRAPRP
  shrunken log2 fold change: 2.44

## RRIRMRPPRLPRPRPRPKRHPRP
  shrunken log2 fold change: 0.351

## RRIRMRPPRLPRPRPRPKRQPRP
  shrunken log2 fold change: 0.0602

## RRIRMRPPRLPRPRPRPKSGPRP
  shrunken log2 fold change: -0.101

## RRIRMRPPRLPRPRPRPKSPPRP
  shrunken log2 fold change: 0.325

## RRIRMRPPRLPRPRPRPKSRPRP
  shrunken log2 fold change: 0.0662

## RRIRMRPPRLPRPRPRPKYWPRP
  shrunken log2 fold change: 0.164

## RRIRMRPPRLPRPRPRPLCWPRP
  shrunken log2 fold change: 1.15

## RRIRMRPPRLPRPRPRPLDYPRP
  shrunken log2 fold change: -0.0259

## RRIRMRPPRLPRPRPRPLFGPRP
  shrunken log2 fold change: 0.232

## RRIRMRPPRLPRPRPRPLGEPRP
  shrunken log2 fold change: 0.317

## RRIRMRPPRLPRPRPRPLHIPRP
  shrunken log2 fold change: -0.0533

## RRIRMRPPRLPRPRPRPLINPRP
  shrunken log2 fold change: -0.231

## RRIRMRPPRLPRPRPRPLKAPRP
  shrunken log2 fold change: 0.541

## RRIRMRPPRLPRPRPRPLKDPRP
  shrunken log2 fold change: 0.0898

## RRIRMRPPRLPRPRPRPLKKPRP
  shrunken log2 fold change: 0.349

## RRIRMRPPRLPRPRPRPLKPPRP
  shrunken log2 fold change: 0.528

## RRIRMRPPRLPRPRPRPLLIPRP
  shrunken log2 fold change: -0.397

## RRIRMRPPRLPRPRPRPLLPPRP
  shrunken log2 fold change: 0.354

## RRIRMRPPRLPRPRPRPLLRPRP
  shrunken log2 fold change: 0.0923

## RRIRMRPPRLPRPRPRPLMYPRP
  shrunken log2 fold change: -0.295

## RRIRMRPPRLPRPRPRPLPQPRP
  shrunken log2 fold change: 0.742

## RRIRMRPPRLPRPRPRPLRVPRP
  shrunken log2 fold change: 1.14

## RRIRMRPPRLPRPRPRPLSDPRP
  shrunken log2 fold change: 0.861

## RRIRMRPPRLPRPRPRPLTPPRP
  shrunken log2 fold change: 1.13

## RRIRMRPPRLPRPRPRPLTSPRP
  shrunken log2 fold change: 0.0851

## RRIRMRPPRLPRPRPRPLVRPRP
  shrunken log2 fold change: 0.51

## RRIRMRPPRLPRPRPRPLYAPRP
  shrunken log2 fold change: 0.063

## RRIRMRPPRLPRPRPRPLYHPRP
  shrunken log2 fold change: -0.0416

## RRIRMRPPRLPRPRPRPLYPPRP
  shrunken log2 fold change: -0.151

## RRIRMRPPRLPRPRPRPMAQPRP
  shrunken log2 fold change: -0.0018

## RRIRMRPPRLPRPRPRPMASPRP
  shrunken log2 fold change: 0.00888

## RRIRMRPPRLPRPRPRPMCHPRP
  shrunken log2 fold change: 0.0525

## RRIRMRPPRLPRPRPRPMCNPRP
  shrunken log2 fold change: -0.00494

## RRIRMRPPRLPRPRPRPMDAPRP
  shrunken log2 fold change: 0.781

## RRIRMRPPRLPRPRPRPMDIPRP
  shrunken log2 fold change: 0.468

## RRIRMRPPRLPRPRPRPMDMPRP
  shrunken log2 fold change: 0.482

## RRIRMRPPRLPRPRPRPMEHPRP
  shrunken log2 fold change: 0.0124

## RRIRMRPPRLPRPRPRPMEVPRP
  shrunken log2 fold change: 0.0214

## RRIRMRPPRLPRPRPRPMFAPRP
  shrunken log2 fold change: 0.304

## RRIRMRPPRLPRPRPRPMFNPRP
  shrunken log2 fold change: -0.343

## RRIRMRPPRLPRPRPRPMIAPRP
  shrunken log2 fold change: 0.0314

## RRIRMRPPRLPRPRPRPMLCPRP
  shrunken log2 fold change: 0.049

## RRIRMRPPRLPRPRPRPMMCPRP
  shrunken log2 fold change: -0.0746

## RRIRMRPPRLPRPRPRPMMDPRP
  shrunken log2 fold change: 0.0325

## RRIRMRPPRLPRPRPRPMMMPRP
  shrunken log2 fold change: -0.0717

## RRIRMRPPRLPRPRPRPMNNPRP
  shrunken log2 fold change: -0.411

## RRIRMRPPRLPRPRPRPMQKPRP
  shrunken log2 fold change: 0.0563

## RRIRMRPPRLPRPRPRPMQSPRP
  shrunken log2 fold change: 0.886

## RRIRMRPPRLPRPRPRPMRDPRP
  shrunken log2 fold change: 1.3

## RRIRMRPPRLPRPRPRPMRMPRP
  shrunken log2 fold change: 0.759

## RRIRMRPPRLPRPRPRPMRSPRP
  shrunken log2 fold change: 1.67

## RRIRMRPPRLPRPRPRPMSLPRP
  shrunken log2 fold change: -0.207
